The target in this test is HTLV receptor (Glut1, the ubiquitous vertebrate glucose transporter) on human cells (human (endogenous in 293T)) (UniProt P11166).
UniProt P11166, sequence (P11166 whole entry): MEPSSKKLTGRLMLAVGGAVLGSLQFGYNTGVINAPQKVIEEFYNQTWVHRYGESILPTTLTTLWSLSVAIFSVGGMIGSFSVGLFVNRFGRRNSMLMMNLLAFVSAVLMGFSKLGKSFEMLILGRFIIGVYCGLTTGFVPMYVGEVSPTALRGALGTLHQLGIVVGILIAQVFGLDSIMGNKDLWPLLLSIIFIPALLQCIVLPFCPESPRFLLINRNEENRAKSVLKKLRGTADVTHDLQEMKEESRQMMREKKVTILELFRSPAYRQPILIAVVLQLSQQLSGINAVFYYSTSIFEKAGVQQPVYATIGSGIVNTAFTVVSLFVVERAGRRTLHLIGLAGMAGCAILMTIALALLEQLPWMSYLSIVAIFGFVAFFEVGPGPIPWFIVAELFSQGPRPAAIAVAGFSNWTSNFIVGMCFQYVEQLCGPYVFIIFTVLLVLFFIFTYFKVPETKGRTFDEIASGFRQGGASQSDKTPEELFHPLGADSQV

For the substance “H1(Y114A)SU, H1_(215)SU subdomain with Tyr114 mutated to Ala (from UniProt P23064 21-215) (Fc fusion)”, the HTLV Env-mediated cell fusion with target cells that express the mutant, percent of control fusion was 56 % of control and the MLV(HTLV) pseudotype infection of target cells that express the mutant, percent of control infection is 46 % of control.

These data come from publication PMC539286.
